The target of one experiment is T1, EpCAM (human, UniProt P16422 24-314).
T1 construct: whole, on cells; also called epithelial cell adhesion molecule; EpCAM^+ prostate cancer (LNCaP)
T1 sequence (looked up): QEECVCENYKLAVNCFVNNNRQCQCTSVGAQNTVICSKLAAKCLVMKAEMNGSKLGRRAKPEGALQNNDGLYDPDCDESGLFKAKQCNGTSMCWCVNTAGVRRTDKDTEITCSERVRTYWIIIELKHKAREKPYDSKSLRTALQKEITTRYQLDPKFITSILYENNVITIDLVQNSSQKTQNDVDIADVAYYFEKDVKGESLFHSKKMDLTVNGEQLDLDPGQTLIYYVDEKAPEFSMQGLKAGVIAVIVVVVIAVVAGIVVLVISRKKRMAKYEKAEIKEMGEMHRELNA
In words: flow cytometry on LNCaP cells (EpCAM+), FITC goat anti-human IgG Fab. For orientation: Flow cytometry measures light scatter and fluorescence of single cells or particles in a stream.

A further experiment addresses T2, CD47 (human, UniProt Q08722 19-323).
T2 construct: whole, on cells; also called CD47^+ breast cancer (MCF7/HER2)
In words: flow cytometry on MCF-7/HER2 cells (CD47+), FITC goat anti-human IgG Fab.

In the next experiment the target is T3, CD33 (human, UniProt P20138 18-364).
T3 construct: whole, on cells; also called CD33^+ human acute myeloid leukemia (HL-60)
T3 sequence (P20138 18-364): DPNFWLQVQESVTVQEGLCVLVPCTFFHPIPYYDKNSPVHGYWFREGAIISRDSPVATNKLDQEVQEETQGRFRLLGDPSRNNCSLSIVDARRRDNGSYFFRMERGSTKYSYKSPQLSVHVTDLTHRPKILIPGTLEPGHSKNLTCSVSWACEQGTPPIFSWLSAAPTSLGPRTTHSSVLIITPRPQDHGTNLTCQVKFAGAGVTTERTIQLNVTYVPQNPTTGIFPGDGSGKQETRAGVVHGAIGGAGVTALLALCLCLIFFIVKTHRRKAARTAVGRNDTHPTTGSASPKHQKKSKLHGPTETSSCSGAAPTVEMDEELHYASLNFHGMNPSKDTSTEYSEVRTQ
The experiment is described as follows: flow cytometry on HL-60 cells (CD33+), FITC goat anti-human IgG Fab.

The target of a further experiment is T4, HGFR (human, UniProt P08581 25-1390).
T4 construct: whole, on cells; also called cMET; hepatocyte growth factor receptor
T4 sequence (P08581 25-1390): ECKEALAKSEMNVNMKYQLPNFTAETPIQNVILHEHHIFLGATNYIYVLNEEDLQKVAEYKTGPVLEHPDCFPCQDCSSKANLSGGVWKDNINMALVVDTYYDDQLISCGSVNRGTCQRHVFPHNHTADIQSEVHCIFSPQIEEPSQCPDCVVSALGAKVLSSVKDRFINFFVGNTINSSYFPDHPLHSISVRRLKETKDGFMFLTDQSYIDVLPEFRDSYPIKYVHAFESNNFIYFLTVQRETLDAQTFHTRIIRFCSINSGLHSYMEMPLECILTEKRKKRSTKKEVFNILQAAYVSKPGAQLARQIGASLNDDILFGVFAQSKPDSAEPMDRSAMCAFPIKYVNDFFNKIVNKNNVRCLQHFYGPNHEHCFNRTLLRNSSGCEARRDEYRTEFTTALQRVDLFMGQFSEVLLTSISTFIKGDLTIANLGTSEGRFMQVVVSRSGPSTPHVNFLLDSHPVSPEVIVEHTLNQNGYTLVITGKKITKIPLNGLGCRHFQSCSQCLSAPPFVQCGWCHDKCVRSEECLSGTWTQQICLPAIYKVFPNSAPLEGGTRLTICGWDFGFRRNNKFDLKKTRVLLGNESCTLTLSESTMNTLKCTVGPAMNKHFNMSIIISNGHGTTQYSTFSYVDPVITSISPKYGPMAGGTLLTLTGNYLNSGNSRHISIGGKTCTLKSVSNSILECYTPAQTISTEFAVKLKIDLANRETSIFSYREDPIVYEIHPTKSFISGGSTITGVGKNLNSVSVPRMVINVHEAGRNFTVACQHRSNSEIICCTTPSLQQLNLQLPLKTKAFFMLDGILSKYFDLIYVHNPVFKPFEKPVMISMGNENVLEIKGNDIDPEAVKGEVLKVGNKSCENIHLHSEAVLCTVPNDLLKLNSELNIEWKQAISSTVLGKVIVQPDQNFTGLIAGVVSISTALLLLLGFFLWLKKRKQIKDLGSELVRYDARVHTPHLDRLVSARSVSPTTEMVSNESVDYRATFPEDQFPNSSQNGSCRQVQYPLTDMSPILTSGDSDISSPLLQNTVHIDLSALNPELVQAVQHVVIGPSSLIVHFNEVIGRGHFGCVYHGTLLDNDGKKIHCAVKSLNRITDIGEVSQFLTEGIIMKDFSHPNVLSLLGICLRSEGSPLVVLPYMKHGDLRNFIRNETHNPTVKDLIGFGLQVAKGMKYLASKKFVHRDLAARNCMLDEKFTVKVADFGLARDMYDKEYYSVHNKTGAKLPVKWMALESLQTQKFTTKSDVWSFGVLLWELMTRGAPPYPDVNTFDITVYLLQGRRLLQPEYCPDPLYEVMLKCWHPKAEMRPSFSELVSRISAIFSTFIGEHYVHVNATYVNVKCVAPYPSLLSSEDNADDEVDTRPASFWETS
In words: flow cytometry on A549 cells (HGFR+), FITC goat anti-human IgG Fab.

From patent publication US20240209084A1 (CYTOARM, published 2024) come the findings set out here.

Protocol for CD33: (§1) Samples were analyzed with FITC conjugated Goat anti-Human IgG Fab antibody and flow cytometry.
Protocol for CD47: as §1
Protocol for EpCAM: as §1
Protocol for HGFR: as §1

B1: CTA03Fab/CTAT07scFv (bispecific antibody)
heavy: EVQLLESGGGLVQPGGSLRLSCAASGFTFSSFPMAWVRQAPGKGLEWVSTISTSGGRTYYRDSVKGRFTISRDNSKNTLYLQMNSLRAEDTAVYYCAKFRQYSGGFDYWGQGTLVTVSSASTKGPSVFPLAPSSKSTSGGTAALGCLVKDYFPEPVTVSWNSGALTSGVHTFPAVLQSSGLYSLSSVVTVPSSSLGTQTYICNVNHKPSNTKVDKKVEPKSCGGGSGGGEVQLVQSGPGLVQPGGSVRISCAASGYTFTNYGMNWVKQAPGKGLEWMGWINTYTGESTYADSFKGRFTFSLDTSASAAYLQINSLRAEDTAVYYCARFAIKGDYWGQGTLLTVSSGGGGSGGGGSGGGGSDIQMTQSPSSLSASVGDRVTITCRSTKSLLHSNGITYLYWYQQKPGKAPKLLIYQMSNLASGVPSRFSSSGSGTDFTLTISSLQPEDFATYYCAQNLEIPRTFGQGTKVELK
light: DIQLTQPNSVSTSLGSTVKLSCTLSSGNIENNYVHWYQLYEGRSPTTMIYDDDKRPDGVPDRFSGSIDRSSNSAFLTIHNVAIEDEAIYFCHSYVSSFNVFGGGTKLTVLRQPKAAPSVTLFPPSSEELQANKATLVCLISDFYPGAVTVAWKADSSPVKAGVETTTPSKQSNNKYAASSYLSLTPEQWKSHRSYSCQVTHEGSTVEKTVAPTECS
notes: also called antiCD3Fab/anti-EpCAMscFv
Turning to B1, in the experiment with EpCAM, the binding result is “binds”.

B2: CTA03Fab/CTAT13scFv (bispecific antibody)
heavy: EVQLLESGGGLVQPGGSLRLSCAASGFTFSSFPMAWVRQAPGKGLEWVSTISTSGGRTYYRDSVKGRFTISRDNSKNTLYLQMNSLRAEDTAVYYCAKFRQYSGGFDYWGQGTLVTVSSASTKGPSVFPLAPSSKSTSGGTAALGCLVKDYFPEPVTVSWNSGALTSGVHTFPAVLQSSGLYSLSSVVTVPSSSLGTQTYICNVNHKPSNTKVDKKVEPKSCGGGSGGGQVQLVQSGAEVKKPGASVKVSCKASGYTFTNYNMHWVRQAPGQRLEWMGTIYPGNDDTSYNQKFKDRVTITADTSASTAYMELSSLRSEDTAVYYCARGGYRAMDYWGQGTLVTVSSGGGGSGGGGSGGGGSDIVMTQSPLSLPVTPGEPASISCRSSQSIVYSNGNTYLGWYLQKPGQSPQLLIYKVSNRFSGVPDRFSGSGSGTDFTLKISRVEAEDVGVYYCFQGSHVPYTFGQGTKLEIK
light: DIQLTQPNSVSTSLGSTVKLSCTLSSGNIENNYVHWYQLYEGRSPTTMIYDDDKRPDGVPDRFSGSIDRSSNSAFLTIHNVAIEDEAIYFCHSYVSSFNVFGGGTKLTVLRQPKAAPSVTLFPPSSEELQANKATLVCLISDFYPGAVTVAWKADSSPVKAGVETTTPSKQSNNKYAASSYLSLTPEQWKSHRSYSCQVTHEGSTVEKTVAPTECS
notes: also called antiCD3Fab/anti-CD47scFv
For the molecule B2, the binding result in the experiment with CD47 is given as “binds”.

B3: CTA03Fab/CTAT11scFv (bispecific antibody)
heavy: EVQLLESGGGLVQPGGSLRLSCAASGFTFSSFPMAWVRQAPGKGLEWVSTISTSGGRTYYRDSVKGRFTISRDNSKNTLYLQMNSLRAEDTAVYYCAKFRQYSGGFDYWGQGTLVTVSSASTKGPSVFPLAPSSKSTSGGTAALGCLVKDYFPEPVTVSWNSGALTSGVHTFPAVLQSSGLYSLSSVVTVPSSSLGTQTYICNVNHKPSNTKVDKKVEPKSCGGGSGGGEVQLVQSGAEVKKPGSSVKVSCKASGYTITDSNIHWVRQAPGQSLEWIGYIYPYNGGTDYNQKFKNRATLTVDNPTNTAYMELSSLRSEDTAFYYCVNGNPWLAYWGQGTLVTVSSGGGGSGGGGSGGGGSDIQLTQSPSTLSASVGDRVTITCRASESLDNYGIRFLTWFQQKPGKAPKLLMYAASNQGSGVPSRFSGSGSGTEFTLTISSLQPDDFATYYCQQTKEVPWSFGQGTKVEVK
light: DIQLTQPNSVSTSLGSTVKLSCTLSSGNIENNYVHWYQLYEGRSPTTMIYDDDKRPDGVPDRFSGSIDRSSNSAFLTIHNVAIEDEAIYFCHSYVSSFNVFGGGTKLTVLRQPKAAPSVTLFPPSSEELQANKATLVCLISDFYPGAVTVAWKADSSPVKAGVETTTPSKQSNNKYAASSYLSLTPEQWKSHRSYSCQVTHEGSTVEKTVAPTECS
notes: also called antiCD3Fab/anti-CD33scFv
As for B3, the binding result in the experiment with CD33 is on record as “binds”.

B4: CTA03Fab/CTAT12scFv (bispecific antibody)
heavy: EVQLLESGGGLVQPGGSLRLSCAASGFTFSSFPMAWVRQAPGKGLEWVSTISTSGGRTYYRDSVKGRFTISRDNSKNTLYLQMNSLRAEDTAVYYCAKFRQYSGGFDYWGQGTLVTVSSASTKGPSVFPLAPSSKSTSGGTAALGCLVKDYFPEPVTVSWNSGALTSGVHTFPAVLQSSGLYSLSSVVTVPSSSLGTQTYICNVNHKPSNTKVDKKVEPKSCGGGSGGGEVQLVESGGGLVQPGGSLRLSCAASGYTFTSYWLHWVRQAPGKGLEWVGMIDPSNSDTRFNPNFKDRFTISADTSKNTAYLQMNSLRAEDTAVYYCATYRSYVTPLDYWGQGTLVTVSSGGGGSGGGGSGGGGSDIQMTQSPSSLSASVGDRVTITCKSSQSLLYTSSQKNYLAWYQQKPGKAPKLLIYWASTRESGVPSRFSGSGSGTDFTLTISSLQPEDFATYYCQQYYAYPWTFGQGTKVEIK
light: DIQLTQPNSVSTSLGSTVKLSCTLSSGNIENNYVHWYQLYEGRSPTTMIYDDDKRPDGVPDRFSGSIDRSSNSAFLTIHNVAIEDEAIYFCHSYVSSFNVFGGGTKLTVLRQPKAAPSVTLFPPSSEELQANKATLVCLISDFYPGAVTVAWKADSSPVKAGVETTTPSKQSNNKYAASSYLSLTPEQWKSHRSYSCQVTHEGSTVEKTVAPTECS
notes: also called antiCD3Fab/anti-HGFRscFv
Consider B4, for which the binding result with HGFR is recorded as “binds”.
